Assay results published in publication doi:10.1101/2025.07.06.663161 (bioRxiv, 2025).
Residue numbers refer to the chain shown, from its start. Names may count otherwise.

Molecular target: the molecule itself
Test: atomic force microscopy

B1: Recombinant wild-type Cdc19, Strep-tagged (SUMO tag cleaved off) (natural protein)
chain: MSRLERLTSLNVVAGSDLRRTSIIGTIGPKTNNPETLVALRKAGLNIVRMNFSHGSYEYHKSVIDNARKSEELYPGRPLAIALDTKGPEIRTGTTTNDVDYPIPPNHEMIFTTDDKYAKACDDKIMYVDYKNITKVISAGRIIYVDDGVLSFQVLEVVDDKTLKVKALNAGKICSHKGVNLPGTDVDLPALSEKDKEDLRFGVKNGVHMVFASFIRTANDVLTIREVLGEQGKDVKIIVKIENQQGVNNFDEILKVTDGVMVARGDLGIEIPAPEVLAVQKKLIAKSNLAGKPVICATQMLESMTYNPRPTRAEVSDVGNAILDGADCVMLSGETAKGNYPINAVTTMAETAVIAEQAIAYLPNYDDMRNCTPKPTSTTETVAASAVAAVFEQKAKAIIVLSTSGTTPRLVSKYRPNCPIILVTRCPRAARFSHLYRGVFPFVFEKEPVSDWTDDVEARINFGIEKAKEFGILKKGDTYVSIQGFKAGAGHSNTLQVSTV
binding result: binds

B2: Recombinant phosphomimicking Cdc19-3E (S56E, S70E, S175E), Strep-tagged (SUMO tag cleaved off) (natural protein)
chain: B1 chain with S56E, S70E, S175E
binding result: binds
